Source: patent publication US20060257938A1, “Method of screening for drugs that block ligand binding to a lipid binding protein” (priority 2005, published 2006)
Positions count from the first letter of the chain named. Several values for one entry are separate records, joined by “and”; a condition that tells them apart may be missing. Identical values can stand only once.

B1: 70C, 72A (protein, listed as Rattus norvegicus)
chain: AFDGTWKVDRNENYEKFMEKMGINVVKRKLGAHDNLKLTITQEGNKFTVKESSNFRNIDVVFELGVDFACSAADGTELTGTWTMEGNKLVGKFKRVDNGKELIAVREISGNELIQTYTYEGVEAKRIFKKE
modifications: PEPTIDE (1)...(131) wild-type rat intestinal fatty acid binding protein
B2: 73L, 72A (protein, listed as Rattus norvegicus)
chain: B1 chain with C70Y, A73L
modifications: PEPTIDE (1)...(131) wild-type rat intestinal fatty acid binding protein
B3: 72E (protein, listed as Rattus norvegicus)
chain: B1 chain with C70Y, A72E
modifications: PEPTIDE (1)...(131) wild-type rat intestinal fatty acid binding protein
B4: 72R (protein, listed as Rattus norvegicus)
chain: B1 chain with C70Y, A72R
modifications: PEPTIDE (1)...(131) wild-type rat intestinal fatty acid binding protein
B5: 72D (protein, listed as Rattus norvegicus)
chain: B1 chain with C70Y, A72D
modifications: PEPTIDE (1)...(131) wild-type rat intestinal fatty acid binding protein
B6: 104F1, 72A (protein, listed as Rattus norvegicus)
chain: B1 chain with C70Y, A104F
modifications: PEPTIDE (1)...(131) wild-type rat intestinal fatty acid binding protein
B7: 73N, 72A (protein, listed as Rattus norvegicus)
chain: B1 chain with C70Y, A73N
modifications: PEPTIDE (1)...(131) wild-type rat intestinal fatty acid binding protein
B8: 73K, 72A (protein, listed as Rattus norvegicus)
chain: B1 chain with C70Y, A73K
modifications: PEPTIDE (1)...(131) wild-type rat intestinal fatty acid binding protein
B9: 72G (protein, listed as Rattus norvegicus)
chain: B1 chain with C70Y, A72G
modifications: PEPTIDE (1)...(131) wild-type rat intestinal fatty acid binding protein
B10: 73H, 72A (protein, listed as Rattus norvegicus)
chain: B1 chain with C70Y, A73H
modifications: PEPTIDE (1)...(131) wild-type rat intestinal fatty acid binding protein
B11: 70M, 72A (protein, listed as Rattus norvegicus)
chain: B1 chain with C70M
modifications: PEPTIDE (1)...(131) wild-type rat intestinal fatty acid binding protein
B12: 72C (protein, listed as Rattus norvegicus)
chain: B1 chain with C70Y, A72C
modifications: PEPTIDE (1)...(131) wild-type rat intestinal fatty acid binding protein
B13: 104F3, 72A (protein, listed as Rattus norvegicus)
chain: B1 chain with C70Y, A104F
modifications: PEPTIDE (1)...(131) wild-type rat intestinal fatty acid binding protein
B14: 72S (protein, listed as Rattus norvegicus)
chain: B1 chain with C70Y, A72S
modifications: PEPTIDE (1)...(131) wild-type rat intestinal fatty acid binding protein
B15: 72Y (protein, listed as Rattus norvegicus)
chain: B1 chain with C70Y, A72Y
modifications: PEPTIDE (1)...(131) wild-type rat intestinal fatty acid binding protein
B16: 72N (protein, listed as Rattus norvegicus)
chain: B1 chain with C70Y, A72N
modifications: PEPTIDE (1)...(131) wild-type rat intestinal fatty acid binding protein
B17: 73E, 72A (protein, listed as Rattus norvegicus)
chain: B1 chain with C70Y, A73E
modifications: PEPTIDE (1)...(131) wild-type rat intestinal fatty acid binding protein
B18: 73G, 72A (protein, listed as Rattus norvegicus)
chain: B1 chain with C70Y, A73G
modifications: PEPTIDE (1)...(131) wild-type rat intestinal fatty acid binding protein
B19: 73F, 72A (protein, listed as Rattus norvegicus)
chain: B1 chain with C70Y, A73F
modifications: PEPTIDE (1)...(131) wild-type rat intestinal fatty acid binding protein
B20: 72K (protein, listed as Rattus norvegicus)
chain: B1 chain with C70Y, A72K
modifications: PEPTIDE (1)...(131) wild-type rat intestinal fatty acid binding protein
B21: 72Q (protein, listed as Rattus norvegicus)
chain: B1 chain with C70Y, A72Q
modifications: PEPTIDE (1)...(131) wild-type rat intestinal fatty acid binding protein
B22: 72V (protein, listed as Rattus norvegicus)
chain: B1 chain with C70Y, A72V
modifications: PEPTIDE (1)...(131) wild-type rat intestinal fatty acid binding protein
B23: 72M (protein, listed as Rattus norvegicus)
chain: B1 chain with C70Y, A72M
modifications: PEPTIDE (1)...(131) wild-type rat intestinal fatty acid binding protein

Assay: Probe fluorescence ratio response to linoleic acid relative to ADIFAB2
Assay type: binding
Conditions: response relative to ADIFAB2
In short: (§1)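 Fluorescently labeled rat intestinal FABP variants were read at two emission wavelengths, near the unbound maximum (about 420 to 480 nm) and the FFA-bound maximum (about 495 to 580 nm). R = Fλ1/Fλ2 after subtracting probe-free intensity; ΔR = R+agent − R0, normalized to ADIFAB2 (rI-FABP-L72A).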

Molecule	DR/DR LA
B1	0.27
B2	0.33 and 0.325
B3	0.38
B4	0.51
B5	0.37
B6	0.47
B7	0.43
B8	0.29
B9	0.48 and 0.544
B10	0.18
B11	0.39
B12	0.25
B13	0.50
B14	0.73
B15	0.64 and 0.637
B16	0.77
B17	0.19
B18	0.56
B19	1.23 and 1.234
B20	0.26
B21	0.76 and 0.762
B22	0.21
B23	1.46

Assay: Probe fluorescence ratio response to palmitic acid relative to ADIFAB2
Assay type: binding
Conditions: response relative to ADIFAB2
In short: as §1

Molecule	DR/DR PA
B1	0.14
B2	0.25 and 0.251
B3	0.19
B4	0.26
B5	0.24
B6	0.27
B7	0.39
B8	0.15
B9	0.26 and 0.307
B10	0.16
B11	0.26
B12	0.12
B13	0.25
B14	0.68
B15	0.41 and 0.415
B16	0.44 and 0.441
B17	0.13
B18	0.41
B19	1.13 and 1.128
B20	0.13
B21	0.99 and 0.989
B22	0.16
B23	1.32

Assay: Probe fluorescence ratio response to oleic acid relative to ADIFAB2
Assay type: binding
Conditions: response relative to ADIFAB2
In short: as §1

Molecule	DR/DR OA
B1	0.24
B2	0.38
B3	0.34
B4	0.45
B5	0.28
B6	0.45
B7	0.41
B8	0.28
B9	0.52 and 0.628
B10	0.13
B11	0.42
B12	0.20
B13	0.47
B14	0.62
B15	0.56 and 0.557
B16	0.83 and 0.831
B17	0.14
B18	0.52
B19	0.73 and 0.728
B20	0.19
B21	0.78 and 0.777
B22	0.20
B23	1.49

Assay: Probe fluorescence ratio response to linolenic acid relative to ADIFAB2
Assay type: binding
Conditions: response relative to ADIFAB2
In short: as §1

Molecule	DR/DR LNA
B1	0.24
B2	0.34 and 0.338
B3	0.36
B4	0.49
B5	0.41
B6	0.42
B7	0.47
B8	0.28
B9	0.48 and 0.590
B10	0.25
B11	0.53
B12	0.17
B13	0.45
B14	0.71
B15	0.59 and 0.594
B16	0.70 and 0.702
B17	0.14
B18	0.53
B19	1.86 and 1.861
B20	0.31
B21	0.73 and 0.735
B22	0.15
B23	1.35

Assay: Probe fluorescence ratio response to arachidonic acid relative to ADIFAB2
Assay type: binding
Conditions: Arachidonic acid; response relative to ADIFAB2
In short: as §1

Molecule	DR/DR AA
B1	0.23
B2	0.73
B3	0.27
B4	0.45
B5	0.27
B7	0.48
B8	0.30
B9	0.62
B10	0.15
B11	0.34
B12	0.14
B14	0.65
B15	0.35
B16	0.65
B17	0.15
B18	0.46
B19	1.21
B20	0.26
B21	0.77
B22	0.18
B23	1.31

Same assay, conditions: arachidonic acid; response relative to ADIFAB2

Molecule	DR/DR AA
B2	0.733
B6	0.66
B9	0.871
B13	0.71
B15	0.346
B16	0.652
B19	1.208
B21	0.770
